The text below walks through data of patent US20120316071A1 (published 2012).

Assay [1] has as its target T1, Recombinant Human DLL4 (delta-like protein 4) (human, UniProt Q9NR61 27-524).
T1 construct: Bought recombinant protein (R&D Systems Cat#1506-D4/CF), spotted on the MSD plate; also called rHuman DLL4; Delta-like 4
As to the kind of experiment: ECL Multispot (MSD) binding assay, DLL4 spotted on plate, 10 nM Fab; ECL signal over blank spot.

Assay [2] concerns the target T2, Recombinant Human DLL4 (R&D Systems Cat#1506-D4/CF) (human, UniProt Q9NR61 27-524).
T2 construct: Bought recombinant protein; also called delta-like protein 4; rHuman DLL4
As to the kind of experiment: ECL multispot (MSD) binding assay; DLL4 signal over blank spot.

Assay [3] concerns the target T2, Recombinant Human DLL4 (R&D Systems …). Put plainly: ECL multispot (MSD) binding assay; DLL4 spotted on the plate, purified Fab added.
Assay [4] deals with T3, Recombinant Human DLL4 (delta-like protein 4) (human, UniProt Q9NR61 27-529).
T3 construct: Bought from R&D Systems (Cat#1506-D4/CF); also called rHuman DLL4
Put plainly: ECL multispot (MSD) binding assay; antigen spotted on plate, Fab in solution.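 Note: purified Fab bound for 1 h at 20 °C, detected with a TAG-labelled antibody, electrochemiluminescence compared with each well's blank, signal-to-blank ratio of at least 4 scored as hit.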

Assay [5] has as its target rHuman ErbB2/Fc Chimera (human, UniProt P04626 23-652). The assay is described as above.
Assay [6] addresses rHuman EGF R/Fc Chimera (human, UniProt P00533 25-645). The description is as above.
The target in assay [7] is rHuman IGF-1 sR (insulin-like growth factor-1 soluble receptor) (human, UniProt P08069 31-932). The assay is described as above.
The target of assay [8] is T4, rHuman P-Cadherin/Fc Chimera (human, UniProt P22223 108-654).
T4 construct: Bought from R&D Systems (Cat#861-PC)
The assay is described as above.

The target in assay [9] is T5, rHuman HGF R/c-MET/Fc Chimera (human, UniProt P08581 25-932).
T5 construct: also called HGF R/Fc
The assay is described as above.

The target of assay [10] is T6, rHuman Notch-1/Fc Chimera (human, UniProt P46531 19-526).
T6 construct: Bought from R&D Systems (Cat#3647-TK)
The assay is described as above.

The target in assay [11] is rHuman CD44/Fc Chimera (human, UniProt P16070 21-220). The assay is described as above.
Assay [12] addresses T7, rHuman Erythropoietin R/Fc Chimera (human, UniProt P19235 25-250).
T7 construct: also called EPO R; EPO R/Fc
T7 sequence (looked up): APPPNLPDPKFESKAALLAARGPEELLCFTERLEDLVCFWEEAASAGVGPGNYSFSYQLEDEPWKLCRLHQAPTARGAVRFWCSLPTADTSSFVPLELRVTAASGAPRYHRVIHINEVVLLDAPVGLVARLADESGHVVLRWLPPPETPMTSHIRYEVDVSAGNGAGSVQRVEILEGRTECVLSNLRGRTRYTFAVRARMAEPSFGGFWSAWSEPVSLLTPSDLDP
Described as above.

Assay [13] has as its target T8, rHuman IGF-1 sR, (IGF-1 sR), CF (R&D Systems Cat#391-GR) (human, UniProt P08069 31-932).
T8 construct: Bought recombinant soluble receptor; also called insulin-like growth factor-1 soluble receptor
Put plainly: ECL multispot (MSD), antigen spotted, 10 nM Fab; blank spot of this row 271.

For assay [14], the target named is T9, rHuman EGF R/Fc Chimera, CF (R&D Systems Cat#344-ER) (human, UniProt P00533 25-645).
T9 construct: Bought recombinant protein; also called epidermal growth factor receptor; Fc part of the bought chimera not given
The assay is described as above.

Assay [15] deals with T10, rHuman P-Cadherin/Fc Chimera, CF (R&D Systems Cat#861-PC) (human, UniProt P22223 108-654).
T10 construct: Bought recombinant protein; Fc part of the bought chimera not given
The assay is described as above.

For assay [16], the target named is T11, rHuman CD44/Fc Chimera, CF (R&D Systems Cat#3660-CD) (human, UniProt P16070 21-220).
T11 construct: Bought recombinant protein; Fc part of the bought chimera not given
The description is as above.

For assay [17], the target named is T12, rHuman Erythropoietin R/Fc Chimera, CF (R&D Systems Cat#963-ER) (human, UniProt P19235 25-250).
T12 construct: Bought recombinant protein; also called EPO R; EPO R/Fc; Fc part of the bought chimera not given
T12 sequence (looked up): T7 sequence (looked up)
The assay is described as above.

The target of assay [18] is T13, rHuman ErbB2/Fc Chimera, CF (R&D Systems Cat#1129-ER) (human, UniProt P04626 23-652).
T13 construct: Bought recombinant protein; also called human epidermal growth factor 2 receptor; Fc part of the bought chimera not given
The assay is described as above.

For assay [19], the target named is T14, rHuman Notch-1/Fc Chimera, CF (R&D Systems Cat#3647-TK) (human, UniProt P46531 19-526).
T14 construct: Bought recombinant protein; Fc part of the bought chimera not given
The assay is described as above.

Assay [20] has as its target T15, rHuman ErbB2/Fc Chimera, CF (R&D Systems Cat#1129-ER) (human, UniProt P04626 23-652).
T15 construct: Bought Fc chimera; also called human epidermal growth factor 2 receptor; Fc part of the bought chimera not given
Put plainly: Multispot ECL (MSD) binding screen, antigen spotted on plate; hit = signal/blank >= 4.

Changes are numbered by the printed parent chain. Names and notes keep the numbering of the source.

T5 sequence (P08581 25-932, change not shown): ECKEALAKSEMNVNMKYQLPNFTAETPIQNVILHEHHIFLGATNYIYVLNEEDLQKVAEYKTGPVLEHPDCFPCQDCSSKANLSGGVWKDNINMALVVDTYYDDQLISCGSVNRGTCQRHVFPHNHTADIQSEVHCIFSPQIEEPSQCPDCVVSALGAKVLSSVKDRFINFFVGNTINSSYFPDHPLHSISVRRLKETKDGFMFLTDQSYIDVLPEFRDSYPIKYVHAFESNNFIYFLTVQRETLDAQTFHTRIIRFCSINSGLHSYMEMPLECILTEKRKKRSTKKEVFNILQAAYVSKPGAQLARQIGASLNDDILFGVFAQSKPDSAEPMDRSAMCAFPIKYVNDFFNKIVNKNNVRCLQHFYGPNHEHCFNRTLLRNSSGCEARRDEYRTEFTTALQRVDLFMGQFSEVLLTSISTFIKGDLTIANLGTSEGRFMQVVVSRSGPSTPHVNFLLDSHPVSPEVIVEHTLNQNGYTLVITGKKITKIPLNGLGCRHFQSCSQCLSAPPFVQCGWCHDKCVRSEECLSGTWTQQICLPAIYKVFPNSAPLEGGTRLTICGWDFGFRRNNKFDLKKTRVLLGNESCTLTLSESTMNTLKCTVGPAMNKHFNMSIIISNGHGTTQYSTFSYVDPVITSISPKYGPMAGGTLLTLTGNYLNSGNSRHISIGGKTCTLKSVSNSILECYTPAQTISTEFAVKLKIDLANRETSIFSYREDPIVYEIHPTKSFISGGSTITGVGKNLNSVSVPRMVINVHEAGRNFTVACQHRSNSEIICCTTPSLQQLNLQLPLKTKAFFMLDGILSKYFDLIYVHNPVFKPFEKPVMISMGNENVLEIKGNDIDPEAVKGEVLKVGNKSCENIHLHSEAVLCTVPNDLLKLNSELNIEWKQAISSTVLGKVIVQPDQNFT

B1: Fab VH1-46_IGHD6-6*01_IGHJ1*01 S102A/S103P/S104F H111S & L6_IGKJ1*01 (Fab, V domains shown)
VH: QVQLVQSGAEVKKPGASVKVSCKASGYTFTSYYMHWVRQAPGQGLEWMGIINPSGGSTSYAQKFQGRVTMTRDTSTSTVYMELSSLRSEDTAVYYCAREEYAPFSAEYFQSWGQGTLVTVSS
VL: not shown
notes: Fab format is as for m1 (CH1 with His6/Flag from Plasmid A, kappa CL from Plasmid C); also called APF H111S
Regarding B1, the Signal/Noise in assay [1] was found to be 24.

B2: Fab VH1-46_IGHD6-6*01_IGHJ1*01 S102A/S103P/S104F/H111F (APFF) & L6_IGKJ1*01 (Fab, V domains shown)
VH: B1 VH with S111F
VL: not shown
notes: Tested as an E. coli-expressed Fab; also called H:APFF & L:wt; APFF parent
Turning to B2, the Signal/Blank in assay [2] amounted to 611 ratio. In [3], the “ECL signal” value came out at 189000 ECL counts.

B3: Fab VH1-46_IGHD6-6*01_IGHJ1*01 S102A/S103P/S104F/H111F (APFF) & L6_IGKJ1*01 S92C (Fab, V domains shown)
VH: B1 VH with S111F
VL: EIVLTQSPATLSLSPGERATLSCRASQSVSSYLAWYQQKPGQAPRLLIYDASNRATGIPARFSGSGSGTDFTLTISSLEPEDFAVYYCQQRCNWPPWTFGQGTKVEIKR
notes: Tested as Fab made in E. coli: VH cloned into Plasmid A (CH1, His6 and Flag tags), kappa VL into Plasmid C (kappa CL); also called APFF / S92C
Take B3: the ECL signal came out at 1230 in assay [4]; 526 in assay [5]; 588 in assay [6]; 642 in [7]; 805 in assay [8]; 589 in assay [9]. For the same molecule, the ECL signal in [10] came to 642; in assay [11] it was 554; in [12], 742.

B4: Fab VH1-46_IGHD6-6*01_IGHJ1*01 S102A/S103P/S104F/H111F & L6_IGKJ1*01 (Fab, V domains shown)
VH: B1 VH with S111F
VL: not shown
notes: Fab format is as for m1 (CH1 with His6/Flag from Plasmid A, kappa CL from Plasmid C); also called APFF; H:APFF & L:wt
B4: the Signal/Noise in assay [1] is 42.5.

B5: Fab VH1-46_IGHD6-6*01_IGHJ1*01 S102A/S103P/S104F/H111F (APFF) & L6_IGKJ1*01 (Fab, V domains shown)
VH: B1 VH with S111F
VL: not shown
notes: Tested as Fab (CH1 with His6/Flag tags from Plasmid A; kappa CL from Plasmid C); also called APFF / parent; H:APFF & L:wt
Regarding B5, the ECL signal in assay [4] worked out at 189000; in assay [5] it was 289; in assay [6] it was 326; in assay [7], 336; in assay [8], 295; in [9] it was 185.

B6: Fab VH1-46_IGHD6-6*01_IGHJ1*01 S102A/S103P/S104F G55W & L6_IGKJ1*01 (Fab, V domains shown)
VH: B1 VH with G55W, S111H
VL: not shown
notes: Tested as Fab (CH1 with His6 and Flag tags, kappa CL); also called APF G55W
Regarding B6, the ECL signal amounted to 250 in [13]; 312 in assay [14]; 391 in [15]; 159 in assay [16]; 296 in assay [17]; 334 in assay [18]. Further, the ECL signal in [19] is 327.

B7: Fab VH1-46_IGHD6-6*01_IGHJ1*01 S102A/S103P/S104F/H111F (APFF) & L6_IGKJ1*01 S92G (Fab, V domains shown)
VH: B1 VH with S111F
VL: B3 VL with C92G
notes: Fab with CH1 (His6 and Flag tags) and kappa CL from the expression vectors; also called APFF & S92G
With B7, in assay [2], the Signal/Blank was determined as 281 ratio. In addition, the “ECL signal” value in [3] came out at 91400 ECL counts.

B8: Fab VH2-5_IGHD7-27*01_IGHJ2*01 & L2_IGKJ1*01 (Fab, V domains shown)
VH: QITLKESGPTLVKPTQTLTLTCTFSGFSLSTSGVGVGWIRQPPGKALEWLALIYWNDDKRYSPSLKSRLTITKDTSKNQVVLTMTNMDPVDTATYYCAHRPNWGYWYFDLWGRGTLVTVSS
VL: not shown
B8: the binding result in assay [20] is “binds”.

B9: Fab VH1-69_IGHD1-1*01_IGHJ6*01 & A17_IGKJ1*01 (Fab, V domains shown)
VH: QVQLVQSGAEVKKPGSSVKVSCKASGGTFSSYAISWVRQAPGQGLEWMGGIIPIFGTANYAQKFQGRVTITADKSTSTAYMELSSLRSEDTAVYYCARGYNWNDDYYYYYGMDVWGQGTTVTVSS
VL: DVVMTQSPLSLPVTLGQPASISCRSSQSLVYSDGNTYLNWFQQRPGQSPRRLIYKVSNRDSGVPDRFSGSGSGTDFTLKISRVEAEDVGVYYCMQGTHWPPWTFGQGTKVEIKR
notes: Fab; expressed in E. coli from Plasmid A (CH1, His6 and Flag tags) and Plasmid C (kappa CL)
Turning to B9, the binding result in assay [20] was “binds”.
